Measurements taken from paper PMC6044691 (ACS Omega, 2017).

Tests used:
AUC = target: the molecule itself; assay: AUC
crystal structure = target: the molecule itself; assay: crystal structure

B1: N-terminal truncated Z,Z-farnesyl diphosphate synthase (ΔzFPS) (enzyme, Solanum habrochaites, UniProt B8XA40 71-303, looked up)
chain: MLDEALMPKHIALIMDGNRRWAKDKGLDVSEGHKHLFPKLKEICDISSKLGIQVITAFAFSTENWKRAKGEVDFLMQMFEELYDEFSRSGVRVSIIGCKTDLPMTLQKCIALTEETTKGNKGLHLVIALNYGGYYDILQATKSIVNKAMNGLLDVEDINKNLFDQELESKCPNPDLLIRTGGDQRVSNFLLWQLAYTEFYFTKTLFPDFGEEDLKEAIINFQQRHRRFGGHTY
AUC
  stoichiometry N: 2

B2: ΔzFPS-H103Y mutant (enzyme, Solanum habrochaites, UniProt B8XA40 71-303, looked up)
chain: MLDEALMPKHIALIMDGNRRWAKDKGLDVSEGYKHLFPKLKEICDISSKLGIQVITAFAFSTENWKRAKGEVDFLMQMFEELYDEFSRSGVRVSIIGCKTDLPMTLQKCIALTEETTKGNKGLHLVIALNYGGYYDILQATKSIVNKAMNGLLDVEDINKNLFDQELESKCPNPDLLIRTGGDQRVSNFLLWQLAYTEFYFTKTLFPDFGEEDLKEAIINFQQRHRRFGGHTY
Crystal structure
  binding result: binds
